We go through three substances from patent publication US20230192796A1.

As usually defined, the Kd is the concentration at which binding is half-saturated.

Test [1] has as its target Human IL-10Rβ on cells (Daudi, Jurkat, YT-1, THP-1 cell lines; primary human PBMC populations) (human) (UniProt Q08334). The test is described as follows: cell-based or functional assay.
For test [2], the target named is Human IL-10Rβ extracellular domain (20-220), biotinylated (human) (UniProt Q08334). The test is described as follows: SPR; clone 5.1 immobilized, pre-bound with saturating soluble IL-10Rα. The note with it: ligand. For orientation: Surface plasmon resonance follows binding to a sensor surface in real time, without labels.
Test [3] shares this target. As to the kind of experiment: SPR; IL-10 clone 5.1 alone, immobilized. The note with it: ligand.

Chain of Human IL-10Rβ on cells (Daudi, Jurkat, YT-1, THP-1 cell lines; primary human PBMC populations) (human) (Q08334 20-325): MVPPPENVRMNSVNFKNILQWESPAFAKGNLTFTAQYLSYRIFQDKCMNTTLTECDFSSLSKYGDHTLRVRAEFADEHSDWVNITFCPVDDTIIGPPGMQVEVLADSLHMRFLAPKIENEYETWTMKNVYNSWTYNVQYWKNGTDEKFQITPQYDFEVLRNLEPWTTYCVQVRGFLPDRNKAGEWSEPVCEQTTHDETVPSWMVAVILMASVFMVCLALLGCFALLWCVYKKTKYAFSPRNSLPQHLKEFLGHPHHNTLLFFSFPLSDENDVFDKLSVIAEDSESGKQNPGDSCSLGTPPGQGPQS
Chain of Human IL-10Rβ extracellular domain (20-220), biotinylated (human) (Q08334 other isoform, or with tags, fused parts or gaps): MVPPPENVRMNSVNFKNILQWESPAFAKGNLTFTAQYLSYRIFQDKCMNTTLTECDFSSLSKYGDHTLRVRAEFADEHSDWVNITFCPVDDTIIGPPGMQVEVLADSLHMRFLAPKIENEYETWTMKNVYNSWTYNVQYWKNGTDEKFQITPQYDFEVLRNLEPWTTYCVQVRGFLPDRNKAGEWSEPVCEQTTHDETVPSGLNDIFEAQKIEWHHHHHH

In test [1], “IL-10 D25A/E96A variant (10-DE) (from UniProt P22301 19-178) (ligand)” yielded an STAT3 activation relative to WT IL-10 in primary NK cells, B cells and T cells of 35 to 50%; a phospho-STAT3 activity in YT-1 cells of 50%.
For “IL-10 D25K variant (from UniProt P22301 19-178) (ligand)”, in test [1], the phospho-STAT3 activity in YT-1 cells came to 50%.
On to “Affinity matured IL-10 clone 5.1 (Super-10), soluble (from UniProt P22301 19-178)”, for which the values for the Kd in test [2] and in test [3] were 30 nM and 70 nM, respectively.
